Results from patent publication US20220127309A1.

Experiments:
[1] = biological target: Ectodomain of RSV F (1-520) - HIV GP160-based SSM (Respiratory Syncytial virus); test: ELISA, printed as affinity (FIG. 1A)
[2] = biological target: Ectodomain of RSV F (1-513) - DScav mutations - Foldon SSM (Respiratory Syncytial virus); test: ELISA, printed as affinity (FIG. 1B)
[3] = biological target: Ectodomain of RSV F (1-520) - DScav mutations - HIV GP160-based SSM (Respiratory Syncytial virus); test: ELISA, printed as affinity (FIG. 1B)
[4] = biological target: Ectodomain of RSV F (1-513) - DScav mutations - Foldon SSM (Respiratory Syncytial virus); test: ELISA, printed as affinity (FIG. 1C)
[5] = biological target: Ectodomain of RSV F (1-520) - DScav mutations - HIV GP160-based SSM (Respiratory Syncytial virus); test: ELISA, printed as affinity (FIG. 1C)

Prefusion specific monoclonal antibody D25
Kd [1]: 23.4 nM
Kd [2]: 1.3 nM
Kd [3]: 1.2 nM

Broadly cross-neutralizing, prefusion specific monoclonal antibody MPE8
Kd [4]: 10.8 nM
Kd [5]: 7.6 nM
